{"source": "the supplement of paper PMC12764529", "key": {"[1]": {"assay": "folding stability dG unfold from chymotrypsin proteolysis; higher = more stable", "in_short": "(§1)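 Sequencing followed digestion of designed mini-proteins with trypsin and chymotrypsin, each at 11 concentrations in threefold dilutions together with a no-protease condition. The mini-proteins were under 80 residues, had no cysteine, sat in a PA-tagged cDNA display construct, and were kept only if AlphaFold2 dimer inter-PAE was above 15. From the counts, Bayesian fitting gave K50, and unfolding free energy was derived against a sequence-predicted unfolded-state K50 and a shared folded-state K50, per protease or combined.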"}, "[2]": {"assay": "folding stability dG unfold from trypsin proteolysis; higher = more stable", "in_short": "as §1"}, "[3]": {"assay": "folding stability dG unfold (combined trypsin and chymotrypsin); higher = more stable", "in_short": "as §1"}}, "note": "± gives the half width of the 95% confidence interval.", "data": [{"sequence": "SAGGSAGGSAGGGLVPIPVNAILLDENGVPKGTFDGYPLLKAGIPLEEFAKKYGFKVETSAGGSAGGSAGGS [r10_153_TrMRF]", "values": [{"measurement": "folding stability dG unfold", "setting": "[1]", "value": "-0.57 ± 0.24", "unit": "kcal/mol"}, {"measurement": "folding stability dG unfold", "setting": "[2]", "value": "-1.08 ± 0.37", "unit": "kcal/mol"}, {"measurement": "folding stability dG unfold", "setting": "[3]", "value": "-0.552 ± 0.16", "unit": "kcal/mol"}]}, {"sequence": "SAGGSAGGSAGGGMAYTVETEVTLTPDGTRVVRTTVTIEDTEVEETHVTPVAPAAPEGLSAGGSAGGSAGGS [r10_898_JUSTAS]", "values": [{"measurement": "folding stability dG unfold", "setting": "[1]", "value": "-0.079 ± 0.06", "unit": "kcal/mol"}, {"measurement": "folding stability dG unfold", "setting": "[2]", "value": "-0.806 ± 0.17", "unit": "kcal/mol"}, {"measurement": "folding stability dG unfold", "setting": "[3]", "value": "-0.231 ± 0.081", "unit": "kcal/mol"}]}, {"sequence": "SAGGSAGGSAGGGMIPVSTSETVVPGPSRLVRRTTTTYRDPVTGKLYTTSSTTVLPPAASAGGSAGGSAGGS [r10_190_JUSTAS]", "values": [{"measurement": "folding stability dG unfold", "setting": "[1]", "value": "1.44 ± 0.064", "unit": "kcal/mol"}, {"measurement": "folding stability dG unfold", "setting": "[2]", "value": "-0.396 ± 0.12", "unit": "kcal/mol"}, {"measurement": "folding stability dG unfold", "setting": "[3]", "value": "0.963 ± 0.045", "unit": "kcal/mol"}]}, {"sequence": "SAGGSAGGSAGGGMKVEKEESPDSTVTETITDPSSENTTIVTKEVLPDGSLKVTETKELPSAGGSAGGSAGG [r7_828_JUSTAS]", "values": [{"measurement": "folding stability dG unfold", "setting": "[1]", "value": "0.987 ± 0.06", "unit": "kcal/mol"}, {"measurement": "folding stability dG unfold", "setting": "[2]", "value": "-0.224 ± 0.087", "unit": "kcal/mol"}, {"measurement": "folding stability dG unfold", "setting": "[3]", "value": "0.717 ± 0.14", "unit": "kcal/mol"}]}, {"sequence": "SAGGSAGGSAGGGMPSYVTKTTTTTVKITNTTTGGNSTTTTTSTVTVTTTTLLPPGLLASAGGSAGGSAGGS [r10_300_JUSTAS]", "values": [{"measurement": "folding stability dG unfold", "setting": "[1]", "value": "1.2 ± 0.028", "unit": "kcal/mol"}, {"measurement": "folding stability dG unfold", "setting": "[2]", "value": "-0.147 ± 0.052", "unit": "kcal/mol"}, {"measurement": "folding stability dG unfold", "setting": "[3]", "value": "0.835 ± 0.074", "unit": "kcal/mol"}]}, {"sequence": "SAGGSAGGSAGGGMPVEMKITLYDPDGTKIGEYTLKVKSEEELKKAVEEKGYNYEVDKESAGGSAGGSAGGS [r10_958_JUSTAS]", "values": [{"measurement": "folding stability dG unfold", "setting": "[1]", "value": "0.17 ± 0.16", "unit": "kcal/mol"}, {"measurement": "folding stability dG unfold", "setting": "[2]", "value": "0.198 ± 0.067", "unit": "kcal/mol"}, {"measurement": "folding stability dG unfold", "setting": "[3]", "value": "0.29 ± 0.1", "unit": "kcal/mol"}]}, {"sequence": "SAGGSAGGSAGGGMRFTVEVEPGKVSYSPGIVNKNTPGSSVSEIITVTVVETNPEKLLLSAGGSAGGSAGGS [r10_654_JUSTAS]", "values": [{"measurement": "folding stability dG unfold", "setting": "[1]", "value": "0.638 ± 0.093", "unit": "kcal/mol"}, {"measurement": "folding stability dG unfold", "setting": "[2]", "value": "-0.499 ± 0.29", "unit": "kcal/mol"}, {"measurement": "folding stability dG unfold", "setting": "[3]", "value": "0.211 ± 0.19", "unit": "kcal/mol"}]}, {"sequence": "SAGGSAGGSAGGGMTITTTSSVSESDGGLTLSTTTTAFDPVTGTWTPLTTTTTTLPPTTSAGGSAGGSAGGS [r10_51_JUSTAS]", "values": [{"measurement": "folding stability dG unfold", "setting": "[1]", "value": "0.778 ± 0.041", "unit": "kcal/mol"}, {"measurement": "folding stability dG unfold", "setting": "[2]", "value": "1.65 ± 0.065", "unit": "kcal/mol"}, {"measurement": "folding stability dG unfold", "setting": "[3]", "value": "1.24 ± 0.053", "unit": "kcal/mol"}]}, {"sequence": "SAGGSAGGSAGGGMTPVTTTTTVTVSPDATPVNFTTPDGTTVTVTPVPSSDTATVTTTVSSAGGSAGGSAGG [r7_796_JUSTAS]", "values": [{"measurement": "folding stability dG unfold", "setting": "[1]", "value": "0.104 ± 0.03", "unit": "kcal/mol"}, {"measurement": "folding stability dG unfold", "setting": "[2]", "value": "1.24 ± 0.06", "unit": "kcal/mol"}, {"measurement": "folding stability dG unfold", "setting": "[3]", "value": "0.724 ± 0.06", "unit": "kcal/mol"}]}, {"sequence": "SAGGSAGGSAGGGMTVLSFTMPKEEVEKYFEEKGLDATEMTISPGPGDTYSVTVLDPGSSAGGSAGGSAGGS [r10_999_JUSTAS]", "values": [{"measurement": "folding stability dG unfold", "setting": "[1]", "value": "-0.0653 ± 0.17", "unit": "kcal/mol"}, {"measurement": "folding stability dG unfold", "setting": "[2]", "value": "0.33 ± 0.089", "unit": "kcal/mol"}, {"measurement": "folding stability dG unfold", "setting": "[3]", "value": "0.151 ± 0.12", "unit": "kcal/mol"}]}, {"sequence": "SAGGSAGGSAGGGNLALPPRYRITVRIEKDGSTSTVEFDSEEELAALDDPGLTVTEVREESAGGSAGGSAGG [r7_793_JUSTAS]", "values": [{"measurement": "folding stability dG unfold", "setting": "[1]", "value": "1.18 ± 0.036", "unit": "kcal/mol"}, {"measurement": "folding stability dG unfold", "setting": "[2]", "value": "-0.743 ± 0.35", "unit": "kcal/mol"}, {"measurement": "folding stability dG unfold", "setting": "[3]", "value": "0.745 ± 0.11", "unit": "kcal/mol"}]}, {"sequence": "SAGGSAGGSAGGGRMLLTETETIFSPSGGESVVTRLVTVFRPPPPVFLPDPEGRWSELVSAGGSAGGSAGGS [r10_330_JUSTAS]", "values": [{"measurement": "folding stability dG unfold", "setting": "[1]", "value": "0.769 ± 0.3", "unit": "kcal/mol"}, {"measurement": "folding stability dG unfold", "setting": "[2]", "value": "0.999 ± 0.14", "unit": "kcal/mol"}, {"measurement": "folding stability dG unfold", "setting": "[3]", "value": "0.856 ± 0.22", "unit": "kcal/mol"}]}, {"sequence": "SAGGSAGGSAGGGRVELELTFIREDGYAVKVRIEVDEDGNLRIEVEVVKLPPAASPEELSAGGSAGGSAGGS [r10_878_TrROS_Hall]", "values": [{"measurement": "folding stability dG unfold", "setting": "[1]", "value": "2.31 ± 0.072", "unit": "kcal/mol"}, {"measurement": "folding stability dG unfold", "setting": "[2]", "value": "3.23 ± 0.14", "unit": "kcal/mol"}, {"measurement": "folding stability dG unfold", "setting": "[3]", "value": "2.86 ± 0.088", "unit": "kcal/mol"}]}, {"sequence": "SAGGSAGGSAGGGSMLTVKVPETVPEYTSTDPATGKTYNVPPSVPVEVEGSPDSFSILLSAGGSAGGSAGGS [r10_46_JUSTAS]", "values": [{"measurement": "folding stability dG unfold", "setting": "[1]", "value": "0.842 ± 0.095", "unit": "kcal/mol"}, {"measurement": "folding stability dG unfold", "setting": "[2]", "value": "1.21 ± 0.046", "unit": "kcal/mol"}, {"measurement": "folding stability dG unfold", "setting": "[3]", "value": "1.01 ± 0.094", "unit": "kcal/mol"}]}, {"sequence": "SAGGSAGGSAGGGSMPVTERIPGSPSSVTTTTFPDGTVTTETTAGPPVTLSPAGGSTLVSAGGSAGGSAGGS [r10_664_JUSTAS]", "values": [{"measurement": "folding stability dG unfold", "setting": "[1]", "value": "1.09 ± 0.058", "unit": "kcal/mol"}, {"measurement": "folding stability dG unfold", "setting": "[2]", "value": "0.97 ± 0.073", "unit": "kcal/mol"}, {"measurement": "folding stability dG unfold", "setting": "[3]", "value": "1.08 ± 0.11", "unit": "kcal/mol"}]}, {"sequence": "SAGGSAGGSAGGGSMTLELPLPEWSEEEIEALAEELKKKGLKVKEIERDPESDVVRITVESAGGSAGGSAGG [r7_906_JUSTAS]", "values": [{"measurement": "folding stability dG unfold", "setting": "[1]", "value": "2.28 ± 0.078", "unit": "kcal/mol"}, {"measurement": "folding stability dG unfold", "setting": "[2]", "value": "1.79 ± 0.1", "unit": "kcal/mol"}, {"measurement": "folding stability dG unfold", "setting": "[3]", "value": "2.15 ± 0.11", "unit": "kcal/mol"}]}, {"sequence": "SAGGSAGGSAGGGSMTTTTLTFTVPPDVTPEEVRAALEAAGYGDVAVTREGNTWTVTVTSAGGSAGGSAGGS [r10_868_JUSTAS]", "values": [{"measurement": "folding stability dG unfold", "setting": "[1]", "value": "2.6 ± 0.039", "unit": "kcal/mol"}, {"measurement": "folding stability dG unfold", "setting": "[2]", "value": "1.56 ± 0.049", "unit": "kcal/mol"}, {"measurement": "folding stability dG unfold", "setting": "[3]", "value": "2.4 ± 0.1", "unit": "kcal/mol"}]}, {"sequence": "SAGGSAGGSAGGGSSGVSYGSVPIVIRDPSGNVVSTLTLRVYPDGTVVLEFPDGSLLLLSAGGSAGGSAGGS [r10_972_JUSTAS]", "values": [{"measurement": "folding stability dG unfold", "setting": "[1]", "value": "4.11 ± 0.045", "unit": "kcal/mol"}, {"measurement": "folding stability dG unfold", "setting": "[2]", "value": "3.38 ± 0.081", "unit": "kcal/mol"}, {"measurement": "folding stability dG unfold", "setting": "[3]", "value": "3.86 ± 0.087", "unit": "kcal/mol"}]}]}
